Reference: publication PMC2291454, “Functional characterisation of the TSC1–TSC2 complex to assess multiple TSC2 variants identified in single families affected by tuberous sclerosis complex” (BMC Medical Genetics, 2008)

Biological target: T1, TSC1 (human, UniProt Q92574 1-1164)
T1 sequence (looked up): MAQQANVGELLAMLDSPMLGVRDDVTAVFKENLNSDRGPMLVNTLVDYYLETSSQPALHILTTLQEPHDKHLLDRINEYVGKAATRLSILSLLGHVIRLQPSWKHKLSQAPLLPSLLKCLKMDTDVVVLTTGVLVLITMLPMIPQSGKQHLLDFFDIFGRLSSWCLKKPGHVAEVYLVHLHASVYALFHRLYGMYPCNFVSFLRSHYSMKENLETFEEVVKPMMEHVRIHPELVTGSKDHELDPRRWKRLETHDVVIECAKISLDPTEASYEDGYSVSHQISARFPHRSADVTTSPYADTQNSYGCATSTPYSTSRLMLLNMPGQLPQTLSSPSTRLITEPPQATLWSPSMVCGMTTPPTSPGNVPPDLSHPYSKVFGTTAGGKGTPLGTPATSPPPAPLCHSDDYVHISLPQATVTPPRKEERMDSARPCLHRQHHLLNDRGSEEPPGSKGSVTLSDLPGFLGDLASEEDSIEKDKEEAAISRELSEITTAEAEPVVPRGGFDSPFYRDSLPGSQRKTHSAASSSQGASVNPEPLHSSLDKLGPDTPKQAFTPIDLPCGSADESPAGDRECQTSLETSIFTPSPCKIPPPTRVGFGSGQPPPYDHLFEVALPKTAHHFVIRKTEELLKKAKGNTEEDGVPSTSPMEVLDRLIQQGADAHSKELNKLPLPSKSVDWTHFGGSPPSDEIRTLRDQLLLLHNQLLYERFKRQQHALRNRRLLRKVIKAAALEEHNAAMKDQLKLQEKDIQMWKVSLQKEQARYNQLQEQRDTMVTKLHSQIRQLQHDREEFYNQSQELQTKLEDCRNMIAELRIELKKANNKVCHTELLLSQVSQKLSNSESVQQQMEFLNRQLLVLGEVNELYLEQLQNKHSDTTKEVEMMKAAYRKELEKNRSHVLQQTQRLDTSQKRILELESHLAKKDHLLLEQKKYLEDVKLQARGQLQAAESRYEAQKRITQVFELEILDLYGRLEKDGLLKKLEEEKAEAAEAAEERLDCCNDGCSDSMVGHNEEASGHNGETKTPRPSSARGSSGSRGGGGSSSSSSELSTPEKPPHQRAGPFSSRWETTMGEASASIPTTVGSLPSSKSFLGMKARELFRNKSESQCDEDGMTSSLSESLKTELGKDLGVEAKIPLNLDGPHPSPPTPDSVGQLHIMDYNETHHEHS
Test: cell-based or functional assay

B1: TSC2 I820del variant (natural protein)
chain: not shown
in vitro rheb GAP activity of the immunoprecipitated TSC1–TSC2 variant complex: rheb-bound GDP/GTP ratio after 90 minutes: 0.9

B2: wild-type TSC2 (natural protein)
chain: not shown
in vitro rheb GAP activity of the immunoprecipitated TSC1–TSC2 complex: rheb-bound GDP/GTP ratio after 90 minutes: 1.4
